Laboratory results: patent US20190248900A1 (Y BIOLOGICS, published 2019)
Where a chain is given by its changes, count along the chain named.

T1: SCARF1 (Homo sapiens (Human), UniProt Q14162 20-421)
T1 sequence: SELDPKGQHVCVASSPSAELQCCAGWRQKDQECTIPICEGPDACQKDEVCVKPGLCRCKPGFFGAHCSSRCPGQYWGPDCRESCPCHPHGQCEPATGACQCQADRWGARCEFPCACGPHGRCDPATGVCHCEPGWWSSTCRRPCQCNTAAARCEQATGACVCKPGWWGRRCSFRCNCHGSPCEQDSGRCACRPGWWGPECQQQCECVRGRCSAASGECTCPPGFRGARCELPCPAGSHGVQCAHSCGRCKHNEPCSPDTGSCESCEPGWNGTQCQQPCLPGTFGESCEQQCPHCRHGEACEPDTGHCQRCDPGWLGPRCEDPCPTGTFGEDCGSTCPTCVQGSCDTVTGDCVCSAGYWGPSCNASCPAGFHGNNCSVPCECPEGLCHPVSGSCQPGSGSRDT

T2: SLITRK5 (Homo sapiens (Human), UniProt O94991 41-664)
T2 sequence: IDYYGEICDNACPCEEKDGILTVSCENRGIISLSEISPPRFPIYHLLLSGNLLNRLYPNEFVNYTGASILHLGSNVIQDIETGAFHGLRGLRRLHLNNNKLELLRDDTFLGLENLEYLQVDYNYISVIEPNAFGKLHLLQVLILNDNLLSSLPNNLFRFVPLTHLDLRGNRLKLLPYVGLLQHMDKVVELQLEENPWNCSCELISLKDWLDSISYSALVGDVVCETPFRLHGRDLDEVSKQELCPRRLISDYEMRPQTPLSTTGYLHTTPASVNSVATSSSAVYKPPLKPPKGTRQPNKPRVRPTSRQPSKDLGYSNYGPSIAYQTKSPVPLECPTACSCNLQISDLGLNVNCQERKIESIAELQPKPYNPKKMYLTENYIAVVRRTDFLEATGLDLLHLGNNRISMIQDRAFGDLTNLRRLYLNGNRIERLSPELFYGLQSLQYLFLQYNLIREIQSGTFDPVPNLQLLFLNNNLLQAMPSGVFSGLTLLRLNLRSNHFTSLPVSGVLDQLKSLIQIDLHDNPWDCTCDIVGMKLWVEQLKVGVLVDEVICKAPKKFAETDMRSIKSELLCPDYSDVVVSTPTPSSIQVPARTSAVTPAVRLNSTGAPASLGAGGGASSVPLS

T3: SOST (Homo sapiens (Human), UniProt Q9BQB4 24-213)
T3 sequence: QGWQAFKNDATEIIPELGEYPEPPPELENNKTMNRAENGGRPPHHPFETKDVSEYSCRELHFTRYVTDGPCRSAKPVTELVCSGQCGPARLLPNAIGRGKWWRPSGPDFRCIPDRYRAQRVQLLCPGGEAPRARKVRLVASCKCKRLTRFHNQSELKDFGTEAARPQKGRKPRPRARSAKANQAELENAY

T4: OGN (Homo sapiens (Human), UniProt P20774 21-298)
T4 sequence: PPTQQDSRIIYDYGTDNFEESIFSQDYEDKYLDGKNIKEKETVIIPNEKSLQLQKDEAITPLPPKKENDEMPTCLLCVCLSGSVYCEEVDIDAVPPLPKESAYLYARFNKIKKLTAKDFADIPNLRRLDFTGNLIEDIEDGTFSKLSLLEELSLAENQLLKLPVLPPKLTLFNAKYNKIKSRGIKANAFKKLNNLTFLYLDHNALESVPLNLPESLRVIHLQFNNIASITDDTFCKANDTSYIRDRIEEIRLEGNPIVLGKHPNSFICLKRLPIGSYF

T5: GREM1 (Homo sapiens (Human), UniProt O60565 25-184)
T5 sequence: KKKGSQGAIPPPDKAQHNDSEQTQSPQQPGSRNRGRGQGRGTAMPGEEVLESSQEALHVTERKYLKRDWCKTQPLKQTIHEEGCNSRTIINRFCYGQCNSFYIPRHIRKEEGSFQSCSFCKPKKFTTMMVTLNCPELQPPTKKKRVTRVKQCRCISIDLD

T6: OPTC (Homo sapiens (Human), UniProt Q9UBM4 20-332)
T6 sequence: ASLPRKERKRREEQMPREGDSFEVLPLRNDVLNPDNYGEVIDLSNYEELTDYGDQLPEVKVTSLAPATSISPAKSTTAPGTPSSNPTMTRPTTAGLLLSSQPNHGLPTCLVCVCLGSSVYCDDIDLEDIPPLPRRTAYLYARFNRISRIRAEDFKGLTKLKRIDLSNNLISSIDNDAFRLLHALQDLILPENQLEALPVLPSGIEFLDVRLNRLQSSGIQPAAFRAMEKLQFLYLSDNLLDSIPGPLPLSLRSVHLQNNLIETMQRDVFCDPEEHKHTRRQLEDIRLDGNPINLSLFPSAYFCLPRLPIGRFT

T7: TPBG (Homo sapiens (Human), UniProt Q13641 32-355)
T7 sequence: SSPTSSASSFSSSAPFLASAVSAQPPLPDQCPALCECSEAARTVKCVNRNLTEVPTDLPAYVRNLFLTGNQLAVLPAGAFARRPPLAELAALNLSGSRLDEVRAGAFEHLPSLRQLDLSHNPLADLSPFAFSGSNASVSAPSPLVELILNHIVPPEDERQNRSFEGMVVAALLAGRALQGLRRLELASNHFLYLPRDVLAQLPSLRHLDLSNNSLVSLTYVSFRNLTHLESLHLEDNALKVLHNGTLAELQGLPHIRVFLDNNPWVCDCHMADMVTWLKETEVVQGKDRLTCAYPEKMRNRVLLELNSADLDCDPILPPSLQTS

B1: PD1-52E8 (antibody, V domains shown)
VH: QVQLVQSGGNLVQPGRSLRLSCAASGFTFDDYAMHWVRQAPGKGLEWVSGISWNSGTPGYADSVQGRFTISRDNAKNSLYLQMNSLRAEDTAVYYCARGHNYLDSSYYDYWGQGTLVTVSS
VL: SYELTQPLSLSVAPGQTARITCSGDALSKEYSYWYQQKPGQAPVLVMYKDSERPSGIPERFSGSSSGTTVTLTISGVQAEDEADYYCQSVDSSDTSVVFGGGTKLTVL
notes: scFv-phage in the screening ELISA; whole IgG in the other assays
B2: PD1-41C9 (antibody, V domains shown)
VH: QMQLVESGGGVVQPGRSLRLSCAASGFTFSSYAMHWVRQAPGKGLEWVAVISYDGSNKYYADSVKGRFTISRDNSKNTLYLQMNRLRSEDTAVYYCTTTTFDSWGQGTLITVSS
VL: DIVMTQTPLSLPVTPGEAASISCRSSQSLLDSEDGNTYLDWYLQKPGQSPQLLIYTLSHRASGVPDRFSGSGSGTDFTLKISRVAAEDVGLYYCLQRMGFPYTFGQGTKLDIK
notes: as for B1
B3: PD1-49A2 (antibody, V domains shown)
VH: B2 VH with M2V, S75P, R85S, S88A, Q106R, I110V
VL: B2 VL with T7S, A18P, L30F, E33D, A85E, L91I, L110V, D111E
notes: scFv-phage in the screening ELISA; whole IgG in the other assays; also called Parent 49A2
B4: PD1-45D6 (antibody, V domains shown)
VH: QVQLVESGGGVVQPGRSLRLSCAASGFTFSSYAMHWVRQVPGKGLEWVAVISYDGNDKYYADSVKGRFTISRDNSKNTLYLQMNSLRAEDTAVYYCVPTTFEYWGQGSQVTVSS
VL: DIVMTQTPLSLPVTPGEAASISCRSSQSLLDSDDGKTYLDWYLQKPGQSPQLLIYTLSYRASGVPDRFSGSGSGTEFNLRISRVEAEDVGIYYCMQRVEFPFTFGQGTKLDIK
notes: as for B1

What follows are binders tested against T8, M4 (assay: ELISA, 1 ug/ml).
T8 construct: also called PD1 mutant M4

Binder	OD490
B1	3.7
B2	3.2
B3	3.9
B4	3.9

What follows are binders tested against T9, M11 (assay: ELISA, 1 ug/ml).
T9 construct: also called PD1 mutant M11

Binder	OD490
B1	0.2
B2	0.9
B3	0.4
B4	0.7

Each binder was assayed against T10, M9 (assay: ELISA, 1 ug/ml).
T10 construct: also called PD1 mutant M9

Binder	OD490
B1	2.4
B2	3.3
B3	3.7
B4	3.8

These binders were tested against T11, M5-1 (assay: ELISA, 1 ug/ml).
T11 construct: also called PD1 mutant M5-1

Binder	OD490
B1	0.3
B2	2.8
B3	0.7
B4	3.8

The binders below were run against T1, SCARF1 (assay: ELISA).

Binder	binding result
B2	no binding (tested: 1 ug/ml)
B3	no binding (tested: 1 ug/ml)
B4	no binding (tested: 1 ug/ml)

Each binder was assayed against CFC1 (Homo sapiens (Human), UniProt P0CG37 26-158) (assay: ELISA).
Chain of CFC1 (P0CG37 26-158 limits assumed): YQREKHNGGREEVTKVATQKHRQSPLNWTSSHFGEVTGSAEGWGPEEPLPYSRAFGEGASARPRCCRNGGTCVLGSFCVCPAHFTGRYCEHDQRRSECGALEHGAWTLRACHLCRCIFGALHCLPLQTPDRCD

Binder	binding result
B2	no binding (tested: 1 ug/ml)
B3	no binding (tested: 1 ug/ml)
B4	no binding (tested: 1 ug/ml)

These binders were tested against T2, SLITRK5 (assay: ELISA).

Binder	binding result
B2	no binding (tested: 1 ug/ml)
B3	no binding (tested: 1 ug/ml)
B4	no binding (tested: 1 ug/ml)

The binders below were run against T3, SOST (assay: ELISA).

Binder	binding result
B2	no binding (tested: 1 ug/ml)
B3	no binding (tested: 1 ug/ml)
B4	no binding (tested: 1 ug/ml)

Each binder was assayed against T4, OGN (assay: ELISA).

Binder	binding result
B2	no binding (tested: 1 ug/ml)
B3	no binding (tested: 1 ug/ml)
B4	no binding (tested: 1 ug/ml)

The binders below were run against T5, GREM1 (assay: ELISA).

Binder	binding result
B2	no binding (tested: 1 ug/ml)
B3	no binding (tested: 1 ug/ml)
B4	no binding (tested: 1 ug/ml)

These binders were tested against T6, OPTC (assay: ELISA).

Binder	binding result
B2	no binding (tested: 1 ug/ml)
B3	no binding (tested: 1 ug/ml)
B4	no binding (tested: 1 ug/ml)

Each binder was assayed against TLR3 (Homo sapiens (Human), UniProt O15455 24-704) (assay: ELISA).

Binder	binding result
B2	no binding (tested: 1 ug/ml)
B3	no binding (tested: 1 ug/ml)
B4	no binding (tested: 1 ug/ml)

The binders below were run against T7, TPBG (assay: ELISA).

Binder	binding result
B2	no binding (tested: 1 ug/ml)
B3	no binding (tested: 1 ug/ml)
B4	no binding (tested: 1 ug/ml)
